According to PMC10398996:
Where two headings read alike, the source gives them in different places. Values belong to the molecule of their own block, whether it stands above or below them.

Legend:
[1] = molecular target: APLP1 F1 (APLP1 with a C-terminal FKBP tag and HA tag); assay: native gel or EMSA; Blue Native PAGE (4–15% Tris–HCl gel, overnight, 4 °C) of membranes of transiently transfected N2a cells solubilised with n-dodecyl-β-D-maltoside; no dimerizer (untreated or ethanol vehicle); Western blot; dimer as percent of total signal
[2] = as above
[3] = molecular target: APLP2 F1 (APLP2-763 with a C-terminal FKBP tag and HA tag); assay: as above
[4] = native gel or EMSA; as a1, but the cells were treated with 100 nM of the rapamycin analogue AP20187 (dimerizer) overnight, added 4 h post-transfection
[5] = molecular target: APP F1 (APP695 with a C-terminal FKBP tag and HA tag); assay: native gel or EMSA; Blue Native PAGE (4–15% Tris–HCl gel, overnight, 4 °C) of membranes of transiently transfected N2a cells solubilised with n-dodecyl-β-D-maltoside; no dimerizer (untreated or ethanol vehicle); Western blot; dimer as percent of total signal
[6] = molecular target: endogenous human APP (human (endogenous in middle frontal gyrus)); assay: native gel or EMSA; Blue Native PAGE, semi-denaturing conditions, of human middle frontal gyrus (controls n = 5, AD n = 6); Western blot with Y188
[7] = molecular target: endogenous mouse APLP1 (mouse (endogenous in C57BL/6 cortex and mouse cells)); assay: native gel or EMSA; Blue Native PAGE of membranes of homogenised mouse cortices (E14 to 12 months; WT, non-transgenic and J20 mice; KO cortices as antibody controls), n-dodecyl-β-D-maltoside; Western blot with Y188, 57 or D2-II
[8] = molecular target: endogenous mouse APP (mouse (endogenous in C57BL/6 cortex and mouse cells)); assay: as above
[9] = molecular target: endogenous mouse APP (mouse (endogenous in C57BL/6 cortex and mouse cells)); assay: as above; remark: listed apart in the source
[10] = molecular target: hAPP with the FAD mutations Swedish (K670N/M671L) and Indiana (V717F), transgenic in J20 mice (human) (UniProt P05067); assay: as above
[11] = molecular target: T1, endogenous mouse APLP2 (mouse (endogenous in C57BL/6 cortex and mouse cells)), Q06335; assay: as above; conditions: remark: other sources report otherwise
T1 chain: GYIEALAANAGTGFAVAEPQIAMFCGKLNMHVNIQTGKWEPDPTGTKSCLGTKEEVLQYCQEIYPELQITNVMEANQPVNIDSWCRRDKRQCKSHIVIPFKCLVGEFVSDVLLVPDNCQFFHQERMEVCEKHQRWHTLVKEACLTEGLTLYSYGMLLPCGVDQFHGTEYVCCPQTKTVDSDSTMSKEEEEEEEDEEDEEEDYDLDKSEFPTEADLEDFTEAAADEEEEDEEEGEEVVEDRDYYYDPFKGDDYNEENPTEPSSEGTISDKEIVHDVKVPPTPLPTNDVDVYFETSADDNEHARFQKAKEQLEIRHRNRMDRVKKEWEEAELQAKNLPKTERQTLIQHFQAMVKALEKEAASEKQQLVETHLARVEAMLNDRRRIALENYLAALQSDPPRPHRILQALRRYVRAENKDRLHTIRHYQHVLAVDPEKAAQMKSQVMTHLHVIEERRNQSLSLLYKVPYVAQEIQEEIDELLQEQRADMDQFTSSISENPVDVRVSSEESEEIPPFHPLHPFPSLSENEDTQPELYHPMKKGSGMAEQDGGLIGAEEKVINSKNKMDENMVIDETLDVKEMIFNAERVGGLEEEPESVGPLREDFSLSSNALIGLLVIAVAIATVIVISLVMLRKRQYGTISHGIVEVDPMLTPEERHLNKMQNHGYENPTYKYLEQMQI

percent dimer [5]: 22.2%
Molecule: APP F1 (APP695 with a C-terminal FKBP tag and HA tag)

percent dimer (non-demented controls) [6]: 21.8%
Molecule: endogenous human APP (natural protein)

percent dimer [8]: 48.9%
percent dimer (1 to 12 months old mice) [8]: 49%
percent dimer (4 months) [8]: 61.3%
percent dimer (12 months) [8]: 54.8%
percent dimer [9]: 45%
Molecule: endogenous mouse APP (natural protein)

percent dimer (4 months) [10]: 58.1%
percent dimer (12 months) [10]: 58%
Molecule: hAPP with the FAD mutations Swedish (K670N/M671L) and Indiana (V717F), transgenic in J20 mice (from UniProt P05067 18-770) (natural protein)

Continued, molecule first:

Molecule: APLP1 F1 (APLP1 with a C-terminal FKBP tag and HA tag)
percent dimer [1]: 31.8%

Molecule: APLP2 F1 (APLP2-763 with a C-terminal FKBP tag and HA tag)
percent in the HMW complex [2]: < 20%, in the high molecular weight (HMW) complex
percent dimer [3]: 16.2%
percent in the HMW complex with AP20187 [4]: > 60% of APLP2 in the HMW complex

Molecule: endogenous mouse APLP1 (natural protein)
percent dimer [7]: 45.6%

B1: endogenous mouse APLP2, Q06335 32-707 (natural protein)
chain: T1 chain
percent dimer [11]: 26.1%
